Consider 30 molecules from publication PMC10786891, “Massively parallel profiling of RNA-targeting CRISPR-Cas13d”.

B1: target 1 insU 3' of 21,insA 3' of 2 (mixed)
RNA 1: CACCCGUGCAAAAAUGCAGGGGUCUAAAACUGAGCGGAUAACCUCUCUAUGG
RNA 2: GGGAAUGGAUCCACAUCUACGAAUUCGUACCUAUAGAGAGGUUAUCCGCUCAACCGAGAUCGGAAGAGCACACGU
B2: target 1 C6A,C7G (mixed)
RNA 1: B1 RNA 1
RNA 2: GGGAAUGGAUCCACAUCUACGAAUUCGUACCAUAGAGAGGUUAUGAGCUCACCGAGAUCGGAAGAGCACACGU
B3: target 1 C2G,A14C (mixed)
RNA 1: B1 RNA 1
RNA 2: B2 RNA 2 with A38C, G45C, A46C, C50G
B4: target 3 complement block 3-6 (mixed)
RNA 1: CACCCGUGCAAAAUUGCAGGGGUCUAAAACGACCUGAAUAUUUCAGAUCAAA
RNA 2: GGGAAUGGAUCCACAUCUACGAAUUCGUUUUUGAUCUGAAAUAUUGUCCUCUGCAGAUCGGAAGAGCACACGU
B5: target 3 insC 3' of 13,insU 3' of 3 (mixed)
RNA 1: B4 RNA 1
RNA 2: GGGAAUGGAUCCACAUCUACGAAUUCGUUUUUGAUCUGACAAUAUUCAGGUUCUGCAGAUCGGAAGAGCACACGU
B6: target 3 insA 3' of 8,insG 3' of 8 (mixed)
RNA 1: B4 RNA 1
RNA 2: GGGAAUGGAUCCACAUCUACGAAUUCGUUUUUGAUCUGAAAUAUAGUCAGGUCUGCAGAUCGGAAGAGCACACGU
B7: target 3 insA 3' of 16,insA 3' of 2 (mixed)
RNA 1: B4 RNA 1
RNA 2: B5 RNA 2 with U37A, G38U, A39G, C40A, U52A
B8: target 3 insU 3' of 22,insG 3' of 7 (mixed)
RNA 1: B4 RNA 1
RNA 2: GGGAAUGGAUCCACAUCUACGAAUUCGUUUUUUGAUCUGAAAUAUUGCAGGUCUGCAGAUCGGAAGAGCACACGU
B9: target 3 A11G (mixed)
RNA 1: B4 RNA 1
RNA 2: B4 RNA 2 with A41G, G46C, U47A, C48G, C49G
B10: target 3 G4U,U22A (mixed)
RNA 1: B4 RNA 1
RNA 2: B4 RNA 2 with U30A, G46C, U47A, C48U, C49G
B11: target 3 insA 3' of 3,insU 3' of 3 (mixed)
RNA 1: B4 RNA 1
RNA 2: B6 RNA 2 with A45U, G46C, U47A, C48G, A49G, G50A, G51U
B12: target 3 insA 3' of 14,insA 3' of 6 (mixed)
RNA 1: B4 RNA 1
RNA 2: B5 RNA 2 with C40A, G49A, U51G
B13: target 3 G3C,C6U (mixed)
RNA 1: B4 RNA 1
RNA 2: B4 RNA 2 with G46U, U47A, C48G
B14: target 3 del4,del6 (mixed)
RNA 1: B4 RNA 1
RNA 2: GGGAAUGGAUCCACAUCUACGAAUUCGUUUUUGAUCUGAAAUAUUAGUCUGCAGAUCGGAAGAGCACACGU
B15: target 3 insU 3' of 6,insA 3' of 4 (mixed)
RNA 1: B4 RNA 1
RNA 2: B6 RNA 2 with A45U, G46C, C48A, A49G, G50A
B16: target 3 insA 3' of 21,insC 3' of 20 (mixed)
RNA 1: B4 RNA 1
RNA 2: GGGAAUGGAUCCACAUCUACGAAUUCGUUUUAUCGAUCUGAAAUAUUCAGGUCUGCAGAUCGGAAGAGCACACGU
B17: target 3 G4C,U22C (mixed)
RNA 1: B4 RNA 1
RNA 2: B4 RNA 2 with U30C, G46C, U47A, C49G
B18: target 3 complement block 6-8 (mixed)
RNA 1: B4 RNA 1
RNA 2: B4 RNA 2 with U44A, U45A, U47A, C48G, C49G
B19: target 3 insU 3' of 22,insG 3' of 8 (mixed)
RNA 1: B4 RNA 1
RNA 2: B8 RNA 2 with U46G, G47U
B20: target 3 U2C,G14U (mixed)
RNA 1: B4 RNA 1
RNA 2: B4 RNA 2 with G38U, G46C, U47A, C48G, C49G, U50C
B21: target 3 C1G,A9G (mixed)
RNA 1: B4 RNA 1
RNA 2: B4 RNA 2 with A43G, G46C, U47A, C48G, C49G, C51G
B22: target 3 insA 3' of 21,insU 3' of 5 (mixed)
RNA 1: B4 RNA 1
RNA 2: B8 RNA 2 with U32A, G47C, C48A, A49U
B23: target 3 G4C,U20C (mixed)
RNA 1: B4 RNA 1
RNA 2: B4 RNA 2 with U32C, G46C, U47A, C49G
B24: target 3 insA 3' of 19,insU 3' of 1 (mixed)
RNA 1: B4 RNA 1
RNA 2: B5 RNA 2 with U35A, C36U, U37C, G38U, A39G, C40A, U52C, C53U
B25: target 3 insC 3' of 8,insU 3' of 4 (mixed)
RNA 1: B4 RNA 1
RNA 2: B6 RNA 2 with A45C, G46U, U47C, C48A, A49G, G50U
B26: target 3 G4C,A11G (mixed)
RNA 1: B4 RNA 1
RNA 2: B4 RNA 2 with A41G, G46C, U47A, C49G
B27: target 3 A5G,U22A (mixed)
RNA 1: B4 RNA 1
RNA 2: B4 RNA 2 with U30A, G46C, U47G, C48G, C49G
B28: target 3 insC 3' of 9,insC 3' of 5 (mixed)
RNA 1: B4 RNA 1
RNA 2: B6 RNA 2 with U44C, A45U, G46U, U47C, C48A, A49C
B29: target 3 insU 3' of 4,insA 3' of 2 (mixed)
RNA 1: B4 RNA 1
RNA 2: B6 RNA 2 with A45U, G46C, U47A, C48G, A49U, G51U, U52A
B30: target 3 U7A,A9G (mixed)
RNA 1: B4 RNA 1
RNA 2: B4 RNA 2 with A43G, U45A, G46C, U47A, C48G, C49G

Changes are numbered by the printed parent chain. Names may count otherwise.

In the data set the target is T1, EsCas13d, nuclease-dead (Eubacterium siraeum, UniProt B0MS50, R295A;H300A;R849A;H854A).
T1 sequence: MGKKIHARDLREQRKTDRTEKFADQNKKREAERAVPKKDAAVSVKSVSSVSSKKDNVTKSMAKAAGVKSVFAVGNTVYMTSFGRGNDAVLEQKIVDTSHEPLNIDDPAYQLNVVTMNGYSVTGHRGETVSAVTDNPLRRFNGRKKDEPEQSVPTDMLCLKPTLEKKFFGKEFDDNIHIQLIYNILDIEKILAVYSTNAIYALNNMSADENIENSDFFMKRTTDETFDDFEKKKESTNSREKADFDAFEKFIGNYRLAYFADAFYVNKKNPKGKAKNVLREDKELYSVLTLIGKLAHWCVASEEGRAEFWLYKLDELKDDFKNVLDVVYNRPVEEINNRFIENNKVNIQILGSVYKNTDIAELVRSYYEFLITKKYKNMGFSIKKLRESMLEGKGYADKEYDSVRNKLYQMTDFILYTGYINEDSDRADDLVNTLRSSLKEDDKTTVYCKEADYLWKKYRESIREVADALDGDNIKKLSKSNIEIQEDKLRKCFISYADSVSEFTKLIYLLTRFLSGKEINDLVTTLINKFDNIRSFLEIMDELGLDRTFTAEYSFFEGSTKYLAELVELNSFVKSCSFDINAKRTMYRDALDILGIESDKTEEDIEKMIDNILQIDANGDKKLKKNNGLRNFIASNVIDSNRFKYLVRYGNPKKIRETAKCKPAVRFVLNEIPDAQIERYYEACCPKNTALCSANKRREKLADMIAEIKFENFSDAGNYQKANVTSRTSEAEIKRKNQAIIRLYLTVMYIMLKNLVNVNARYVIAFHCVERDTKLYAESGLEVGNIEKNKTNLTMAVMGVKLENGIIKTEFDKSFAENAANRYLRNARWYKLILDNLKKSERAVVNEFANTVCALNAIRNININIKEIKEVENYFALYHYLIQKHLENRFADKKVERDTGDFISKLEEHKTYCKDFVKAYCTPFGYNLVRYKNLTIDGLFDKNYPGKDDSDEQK
As to the kind of experiment: crRNA (strand 1, pre-loaded); Mg2+; 40 mM Tris-HCl pH 7.5, 150 mM NaCl, 6 mM MgCl2, 1 mM DTT, 0.1% Tween-20, 0.2 mg/ml BSA; 25 C; 10 min per concentration, then washed. The conditions noted are these: tags: His6-TwinStrep-SUMO cleaved; N-terminal SNAP kept (SNAP-Surface 488); label: 3' end held by stalled T7 RNA polymerase.
B1 returned a Kd of 26.8 ± 2.8 nM.
The figure for B2 is 6.86 ± 0.18 nM.
The figure for B3 is 44.8 ± 3.3 nM; for B4 it is 57 ± 6 nM; for B5 it is 32.5 ± 8 nM.
The molecule B6 yielded a Kd of 53.5 ± 8.5 nM. Against the preceding molecule, the Kd is about 1.6-fold higher.
In turn, B7 registered a Kd of 84.5 ± 25.5 nM.
Molecule B8 came in with a Kd of 85 ± 26.5 nM.
B9 yielded an equilibrium dissociation constant (Kd) of 57 ± 11.5 nM.
The figure for B10 is 4.45 ± 0.435 nM; for B11 it is 27.9 ± 2.9 nM; for B12 it is 90.5 ± 25 nM.
B13 yielded an equilibrium dissociation constant (Kd) of 13.1 ± 0.95 nM.
As for B14, the Kd stood at 19 ± 3.25 nM.
The result for B15 reads 19.4 ± 3.6 nM.
The figure for B16 is 73.5 ± 20.5 nM; for B17 it is 13 ± 2.15 nM.
The result for B18 reads 102 ± 23.5 nM.
Molecule B19 came in with a Kd of 50.5 ± 11.5 nM.
The figure for B20 is 82 ± 34 nM.
The result for B21 reads 33.5 ± 8.5 nM.
Molecule B22 had a Kd of 44 ± 4.65 nM.
As for B23, binding was put at a Kd of 57 ± 12 nM.
The figure for B24 is 68 ± 21 nM; for B25 it is 105 ± 42 nM.
With B26, the Kd was found to be 54.5 ± 18.5 nM.
The figure for B27 is 21.6 ± 2.85 nM.
The result for B28 reads 99 ± 21 nM; that for B29, 4.65 ± 0.75 nM.
The figure for B30 is 97 ± 17.5 nM.
